Measurements from PMC2596486.

Key:
[1] = biological target: rHA subtype H1 (A/New Caledonia/20/99) (influenza A virus A/New Caledonia/20/99 (H1)) (UniProt Q6WG00); assay: SPR
[2] = biological target: rHA subtype H1 (A/New Caledonia/20/99) (Influenza A virus A/New Caledonia/20/1999 (H1N1)) (UniProt Q6WG00); assay: SPR

CR6261 Fab
Kd [1]: 3.8 nM
koff [1]: 0.0037 s⁻¹
kon [1]: 980000 M⁻¹ s⁻¹

CR6323 Fab
Kd [2]: 3.9 nM
koff [2]: 0.00054 s⁻¹
kon [2]: 140000 M⁻¹ s⁻¹
